These results are taken from patent publication EP1270739A1.

“And” between values parts separate entries of the source, which are not always exact repeats. Identical values can stand only once.

The target in experiment [1] is purified human placental alkaline phosphatase (hPLAP, SIGMA) (human) (UniProt P05187). Put plainly: ELISA, plate coated with purified hPLAP; mAb 64 ng/ml spiked in negative serum, diluted 1:32; anti-mouse-HRP, TMB. In general terms: ELISA stands for enzyme-linked immunosorbent assay.
Experiment [2] shares this target. Put plainly: ELISA, plate coated with purified hPLAP; mAb 64 ng/ml in PBS, diluted 1:2; anti-mouse-HRP, TMB.
The target is the same in experiment [3]. As to the kind of experiment: ELISA, plate coated with purified hPLAP; mAb 64 ng/ml in PBS, diluted 1:64; anti-mouse-HRP, TMB.
Experiment [4] shares this target. As to the kind of experiment: ELISA, plate coated with purified hPLAP; mAb 64 ng/ml spiked in negative serum, diluted 1:16; anti-mouse-HRP, TMB.
Experiment [5] has the same target. Put plainly: ELISA, plate coated with purified hPLAP; mAb 64 ng/ml spiked in negative serum, diluted 1:8; anti-mouse-HRP, TMB.
For experiment [6] the target is unchanged. As to the kind of experiment: ELISA, plate coated with purified hPLAP; mAb 64 ng/ml spiked in negative serum, diluted 1:2; anti-mouse-HRP, TMB.
Experiment [7] has the same target. As to the kind of experiment: ELISA, plate coated with purified hPLAP; mAb 64 ng/ml in PBS, diluted 1:16; anti-mouse-HRP, TMB.
For experiment [8] the target is unchanged. Put plainly: ELISA, plate coated with purified hPLAP; mAb 64 ng/ml spiked in negative serum, diluted 1:64; anti-mouse-HRP, TMB.
For experiment [9] the target is unchanged. As to the kind of experiment: ELISA, plate coated with purified hPLAP; mAb 64 ng/ml spiked in negative serum, undiluted; anti-mouse-HRP, TMB.
For experiment [10] the target is unchanged. As to the kind of experiment: ELISA, plate coated with purified hPLAP; mAb 64 ng/ml in PBS, diluted 1:8; anti-mouse-HRP, TMB.
Experiment [11] shares this target. Put plainly: ELISA, plate coated with purified hPLAP; mAb 64 ng/ml in PBS, undiluted; anti-mouse-HRP, TMB.
Experiment [12] has the same target. Put plainly: ELISA, plate coated with purified hPLAP; mAb 64 ng/ml spiked in negative serum, diluted 1:4; anti-mouse-HRP, TMB.
For experiment [13] the target is unchanged. As to the kind of experiment: ELISA, plate coated with purified hPLAP; row labelled '0' (not explained, presumably no sample, blank); anti-mouse-HRP, TMB.
Experiment [14] shares this target. Put plainly: ELISA, plate coated with purified hPLAP; mAb 64 ng/ml in PBS, diluted 1:4; anti-mouse-HRP, TMB.
For experiment [15] the target is unchanged. As to the kind of experiment: ELISA, plate coated with purified hPLAP; mAb 64 ng/ml in PBS, diluted 1:32; anti-mouse-HRP, TMB.

Chain of UniProt P05187 (P05187 23-506 limits assumed): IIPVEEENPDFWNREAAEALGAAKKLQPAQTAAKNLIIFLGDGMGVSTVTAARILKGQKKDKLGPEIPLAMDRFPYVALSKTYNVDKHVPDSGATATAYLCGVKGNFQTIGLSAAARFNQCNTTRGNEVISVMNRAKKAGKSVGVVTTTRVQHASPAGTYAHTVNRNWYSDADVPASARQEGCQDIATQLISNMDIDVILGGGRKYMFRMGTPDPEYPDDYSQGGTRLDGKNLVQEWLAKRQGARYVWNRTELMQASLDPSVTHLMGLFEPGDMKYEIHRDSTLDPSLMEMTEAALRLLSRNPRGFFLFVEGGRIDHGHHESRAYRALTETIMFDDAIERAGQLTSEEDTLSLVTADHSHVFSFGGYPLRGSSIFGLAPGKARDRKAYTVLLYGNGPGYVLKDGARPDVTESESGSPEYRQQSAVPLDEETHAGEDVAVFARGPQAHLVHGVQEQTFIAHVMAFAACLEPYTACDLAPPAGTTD

As for “mouse monoclonal antibody to PLAP (clone 8B6, Sigma Immunochemicals)”, the absorbance at 450 nm in [1] amounted to 0.071 absorbance; in [2], 0.487 absorbance; in experiment [3], 0.047 absorbance; in experiment [4], 0.123 absorbance; in [5], 0.209 absorbance; in [6] it was 0.439 absorbance. Also, the absorbance at 450 nm in experiment [7] came out at 0.169 absorbance; in [8], 0.042 absorbance; in experiment [9], 0.546 absorbance; in [10] it was 0.282 absorbance; in experiment [11], 0.486 absorbance; in [12], 0.341 absorbance. Further, the absorbance at 450 nm is 0.007 absorbance and 0.009 absorbance in experiment [13]; 0.424 absorbance in experiment [14]; 0.091 absorbance in experiment [15].
The substance “serum of mice injected with saline (negative control serum)” returned an absorbance at 450 nm in [13] of 0.005 absorbance.
